Reference: patent CN115992129A (YEASEN BIOLOGICAL TECH SHANGHAI CO LTD, dated 2023)

Molecular target: T1, BSA (UniProt P02769 25-607)
T1 construct: Negative control antigen in ELISA; also called BSA对照
Assay: ELISA, BSA coated and blocked as control, HRP anti-IgY secondary

T1 sequence (P02769 25-607 limits assumed): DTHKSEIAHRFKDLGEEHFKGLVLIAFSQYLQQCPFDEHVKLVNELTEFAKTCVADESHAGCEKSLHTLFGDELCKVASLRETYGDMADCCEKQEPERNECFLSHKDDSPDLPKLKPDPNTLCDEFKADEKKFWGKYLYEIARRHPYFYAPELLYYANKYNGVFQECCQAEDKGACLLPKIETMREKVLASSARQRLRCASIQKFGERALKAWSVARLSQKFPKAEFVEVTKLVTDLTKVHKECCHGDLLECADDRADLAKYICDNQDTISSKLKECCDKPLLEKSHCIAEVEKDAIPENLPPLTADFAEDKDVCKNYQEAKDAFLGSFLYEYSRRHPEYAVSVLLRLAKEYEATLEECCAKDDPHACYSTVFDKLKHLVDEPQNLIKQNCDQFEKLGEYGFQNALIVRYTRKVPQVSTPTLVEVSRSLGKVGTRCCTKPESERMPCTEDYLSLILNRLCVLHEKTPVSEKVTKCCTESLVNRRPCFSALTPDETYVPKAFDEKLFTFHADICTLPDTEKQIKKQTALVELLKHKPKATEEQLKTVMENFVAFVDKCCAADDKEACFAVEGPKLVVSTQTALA

B1: ProteinA抗体IgY-80 (antibody, V domains shown)
VH: AVTLDESGGGLQTPGGTLSLVCKASGFTFSDRGMHWVRQAPGKGLEWVAGTYTSGSITYYAPAVNGRATISRDNGQSTLRLQLNNLRAEDSGTYYCARDFGPSGWNAGSIDAWGHGTEVIVSS
VL: QAALTQPSSVSANLGGTVKITCSGGGSRYGYMYGWIQQTSPGSAPVTVIYDNTNRPSNIPSRFSGSLSGSTNTLTITGVQAEDEAVYFCGSYEGTTLTFGAGTTLTVL
notes: Biotin-conjugated as the detection antibody in the sandwich ELISA
- binding result: no binding (tested: 1μg/ml, two-fold dilutions)

B2: ProteinA抗体IgY-81 (antibody, V domains shown)
VH: AVTLDESGGGLQTPGGALSLVCKASGFTFSSNGMGWVRQAPGKGLEYVASISNDGSLTDYASPVKGRATISRDNGQSTVRLQLNNLRAEDTGTYYCAKSPGGGWLADPIDAWGRGTEVIVSS
VL: QAALTQPASVSANPGETVQITCSGGGSSRYYGWYQQKSPGSAPVTLIYDNINRPSGIPSRFSGSTSGSTGTLSITGVRAEDEAVYYCGSFDSSGTGIFGAGTTLTVL
notes: Coating (capture) antibody in the sandwich ELISA
- binding result: no binding (tested: 1μg/ml, two-fold dilutions)
